# Measurements published in PMC9755798, “Transcription factor CsESE3 positively modulates both jasmonic acid and wax biosynthesis in citrus”.
# B1: Probe_PLIP (CsPLIP1 promoter GCC-box) (dsDNA)
# DNA 1: GAGCCTCACTAGCCGCCATTGTCCCCG
# DNA 2: CGGGGACAATGGCGGCTAGTGAGGCTC
# B2: Probe_PLIP_Like (CsPLIP_Like promoter GCC-box) (dsDNA)
# DNA 1: AAATAAACTAAGCCGCCTTGTCATATT
# DNA 2: AATATGACAAGGCGGCTTAGTTTATTT
# Experiments:
# CsESE3 [1] = molecular target: T1, CsESE3 (Citrus sinensis? ('Newhall' navel …, UniProt A0ACB8NL77 1-192)); experiment: EMSA; shift attenuated by excess (up to 28x) cold probe; EMSA as in Gong et al. 2021b; buffer, salt, pH and temperature not given; 5' FAM probes, 100 uM unlabeled competitor stocks, 7x/14x/28x excess; conditions: protein: recombinant; tags: N-terminal His (pETDuet); label: 5' FAM (top strand); blunt
# CsESE3 [2] = molecular target: T1, CsESE3; experiment: EMSA; EMSA as in Gong et al. 2021b; buffer, salt, pH and temperature not given; 5' FAM probes, 100 uM unlabeled competitor stocks, 7x/14x/28x excess; conditions: protein: recombinant; tags: N-terminal His (pETDuet); label: 5' FAM (top strand); blunt
# T1 sequence (A0ACB8NL77 entry or part of it): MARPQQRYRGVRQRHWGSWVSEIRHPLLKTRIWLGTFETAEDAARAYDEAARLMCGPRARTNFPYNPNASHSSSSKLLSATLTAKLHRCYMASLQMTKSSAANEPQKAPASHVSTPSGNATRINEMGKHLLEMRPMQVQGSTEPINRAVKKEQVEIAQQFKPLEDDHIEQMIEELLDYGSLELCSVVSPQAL
Binder,binding result (CsESE3 [1]),binding result (CsESE3 [2])
B1,binds,
B2,,binds
